Positions count from the first letter of the chain named. In names and notes the source's numbering stands.
Assays:
[1] = molecular target: the molecule itself; test: cryo-EM structure; wild-type LONP1 2.5 mg/ml in 50 mM Tris pH 8, 75 mM KCl, 10 mM MgCl2, 1 mM TCEP, 1 mM ATPγS; substrate-free (~3.4 Å) and substrate-bound (~3.2 Å) conformations from one sample; LONP1 with itself
[2] = molecular target: the molecule itself; test: cryo-EM structure; LONP1 2.5 mg/ml in 50 mM Tris pH 8, 75 mM KCl, 10 mM MgCl2, 1 mM TCEP, 1 mM ATPγS with 10-fold molar excess bortezomib; ~3.2 Å; LONP1 with itself
[3] = molecular target: the molecule itself; test: cryo-EM structure; Walker B (E591A) LONP1 2.5 mg/ml in 50 mM Tris pH 8, 75 mM KCl, 10 mM MgCl2, 1 mM TCEP, 1 mM ATP; ~4.8 Å; LONP1 with itself

B1: human LONP1 (mature, lacking its N-terminal mitochondrial targeting sequence), wild type (enzyme, UniProt P36776 115-959, looked up)
chain: MTIPDVFPHLPLIAITRNPVFPRFIKIIEVKNKKLVELLRRKVRLAQPYVGVFLKRDDSNESDVVESLDEIYHTGTFAQIHEMQDLGDKLRMIVMGHRRVHISRQLEVEPEEPEAENKHKPRRKSKRGKKEAEDELSARHPAELAMEPTPELPAEVLMVEVENVVHEDFQVTEEVKALTAEIVKTIRDIIALNPLYRESVLQMMQAGQRVVDNPIYLSDMGAALTGAESHELQDVLEETNIPKRLYKALSLLKKEFELSKLQQRLGREVEEKIKQTHRKYLLQEQLKIIKKELGLEKDDKDAIEEKFRERLKELVVPKHVMDVVDEELSKLGLLDNHSSEFNVTRNYLDWLTSIPWGKYSNENLDLARAQAVLEEDHYGMEDVKKRILEFIAVSQLRGSTQGKILCFYGPPGVGKTSIARSIARALNREYFRFSVGGMTDVAEIKGHRRTYVGAMPGKIIQCLKKTKTENPLILIDEVDKIGRGYQGDPSSALLELLDPEQNANFLDHYLDVPVDLSKVLFICTANVTDTIPEPLRDRMEMINVSGYVAQEKLAIAERYLVPQARALCGLDESKAKLSSDVLTLLIKQYCRESGVRNLQKQVEKVLRKSAYKIVSGEAESVEVTPENLQDFVGKPVFTVERMYDVTPPGVVMGLAWTAMGGSTLFVETSLRRPQDKDAKGDKDGSLEVTGQLGEVMKESARIAYTFARAFLMQHAPANDYLVTSHIHLHVPEGATPKDGPSAGCTIVTALLSLAMGRPVRQNLAMTGEVSLTGKILPVGGIKEKTIAAKRAGVTCIVLPAENKKDFYDLAAFITEGLEVHFVEHYREIFDIAFPDEQAEALAVER
notes: human LONP1, mature mitochondrial-matrix form with methionine 115 as its first residue; residues ~420-947 resolved in the cryo-EM maps; pET20b-His6-LONP1; no removal of the His6 tag is described; Incubated with ATPγS for cryo-EM; also called His6-LONP1; WT LONP1; source: E. coli Rosetta 2(DE3)pLysS, purified (TALON cobalt resin, Superose 6 size exclusion)
stoichiometry N [1]: 6

B2: LONP1^Bz: human LONP1 with bortezomib covalently attached to the catalytic serine (enzyme, UniProt P36776 115-959, looked up)
chain: B1 chain
modifications: bortezomib covalently attached to S855
notes: human LONP1, mature form with methionine 115 as its first residue; with ATPγS
stoichiometry N [2]: 6

B3: Walker B LONP1 mutant (E591A) (enzyme, human, UniProt P36776 115-959, looked up)
chain: B1 chain with E477A
notes: human LONP1, mature form with methionine 115 as its first residue, with the Walker B mutation E591 to A591; Made by QuikChange from pET20b-His6-LONP1, expressed and purified as the wild type; Structure determined with ATP; also called WalkerB mutant LONP1; source: E. coli Rosetta 2(DE3)pLysS, purified (TALON cobalt resin, Superose 6 size exclusion)
binding result [3]: binds
